Data as given in patent publication US20200181278A1 (MITSUBISHI TANABE PHARMA, published 2020).

Target: T1, mouse CD138 His (mouse, UniProt P18828 23-255, limits assumed)
T1 construct: also called mCD138; not shown: His tag
T1 sequence: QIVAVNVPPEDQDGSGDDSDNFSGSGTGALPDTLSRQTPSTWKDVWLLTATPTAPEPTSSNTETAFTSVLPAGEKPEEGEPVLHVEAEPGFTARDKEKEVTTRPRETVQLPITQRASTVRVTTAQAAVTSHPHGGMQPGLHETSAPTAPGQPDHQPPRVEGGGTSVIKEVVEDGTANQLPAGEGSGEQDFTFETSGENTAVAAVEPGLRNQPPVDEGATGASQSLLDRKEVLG
Test: SPR, mouse CD138 His immobilised, antibody as analyte
Description: Murine IgGs were purified from the hybridoma supernatants and the IgGs were subject to SPR (surface plasmon resonance) for kinetic binding measurements. […] […] KDs were measured using bivalent analyte fit.

Row | Binder | binding result
1 | F12P7G11 (antibody, V domains shown, Murine IgG purified from hybridoma supernatant) VH: QVQLQQSGAELARPGASVKLSCKASGYTFSSHWMQWVKQRPGQGLEWIGAIYPGDGDTRFTQKFKGKATLTADKSSNTAYMQLSSLASEDSAVYYCARGIYYDRSRAMDYWGQGTSVTVSS VL: QIVLSQSPAILSASPGEKVTMTCRASSSVNYMHWYQQKPGSSPKHWIYATSYLASGVPARFSGSGSGTSYSLTISRVEAEDAATYYCQQWSSDPLTFGAGTKLELKR | no binding
2 | F11AP11E5 (antibody, V domains shown, Murine IgG purified from hybridoma supernatant) VH: QVQLQQSGAELVKPGASVKLSCKASGYTFTNYYMYWVKQRPGQGLEWIGEINPGNGGTNFNEKFKNKATLTVDKSSSTAYMQLSSLTSEDSAVYYCTTRFAYWGQGTLVIVSA VL: DVVMTQTPLSLSVTIGQPASISCKSGQSLLYSNGKTYLTWLQQRPGQAPKLLMYQVSKLDPGIPDRFSGSGSETDFTLKISRVEAEDLGVYYCLQNTYYPHTFGAGTKLELKR | no binding
